Test results as given in patent US20070093443.
Numbering of substitutions follows the chain as printed. Numbers in names are those of the source.

B1: modified MT-SP1 CB252 (Y146E/K224N) protease domain (protein)
chain: VVGGTDADEGEWPWQVSLHALGQGHICGASLISPNWLVSAAHCYIDDRGFRYSDPTQWTAFLGLHDQSQRSAPGVQERRLKRIISHPFFNDFTFDYDIALLELEKPAEYSSMVRPICLPDASHVFPAGKAIWVTGWGHTQEGGTGALILQKGEIRVINQTTCENLLPQQITPRMMCVGFLSGGVDSCQGDSGGPLSSVEADGRIFQAGVVSWGDGCAQRNNPGVYTRLPLFRDWIKENTGV
B2: modified MT-SP1 CB377 (Y146E/Q175D/K224N) protease domain (protein)
chain: B1 chain with Q169D

Columns and labels:
[1] = biological target: T1, cynomolgus monkey complement C2 (in plasma of treated monkeys), G8F3W0
T1 chain: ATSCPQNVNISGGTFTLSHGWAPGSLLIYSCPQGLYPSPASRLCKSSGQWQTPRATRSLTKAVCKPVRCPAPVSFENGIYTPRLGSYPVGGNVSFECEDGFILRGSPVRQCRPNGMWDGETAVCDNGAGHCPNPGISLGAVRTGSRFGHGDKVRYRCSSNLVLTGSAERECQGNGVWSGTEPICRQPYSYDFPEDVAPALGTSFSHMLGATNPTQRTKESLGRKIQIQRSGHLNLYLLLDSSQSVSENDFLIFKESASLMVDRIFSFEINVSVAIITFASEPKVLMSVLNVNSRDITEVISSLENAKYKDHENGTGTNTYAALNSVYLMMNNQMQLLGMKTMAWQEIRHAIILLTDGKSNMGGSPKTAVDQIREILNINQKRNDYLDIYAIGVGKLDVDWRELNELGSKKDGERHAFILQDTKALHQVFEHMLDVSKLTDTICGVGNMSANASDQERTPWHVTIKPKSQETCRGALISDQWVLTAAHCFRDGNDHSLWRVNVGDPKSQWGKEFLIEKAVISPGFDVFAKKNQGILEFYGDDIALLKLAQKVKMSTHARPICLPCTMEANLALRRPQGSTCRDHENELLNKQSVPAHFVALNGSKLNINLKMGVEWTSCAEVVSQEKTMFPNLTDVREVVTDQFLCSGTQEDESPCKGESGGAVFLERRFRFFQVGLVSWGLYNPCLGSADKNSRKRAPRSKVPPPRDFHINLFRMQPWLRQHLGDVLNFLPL

Complement C4 (human) = biological target: T2, Complement C4 (human)
T2 chain 1: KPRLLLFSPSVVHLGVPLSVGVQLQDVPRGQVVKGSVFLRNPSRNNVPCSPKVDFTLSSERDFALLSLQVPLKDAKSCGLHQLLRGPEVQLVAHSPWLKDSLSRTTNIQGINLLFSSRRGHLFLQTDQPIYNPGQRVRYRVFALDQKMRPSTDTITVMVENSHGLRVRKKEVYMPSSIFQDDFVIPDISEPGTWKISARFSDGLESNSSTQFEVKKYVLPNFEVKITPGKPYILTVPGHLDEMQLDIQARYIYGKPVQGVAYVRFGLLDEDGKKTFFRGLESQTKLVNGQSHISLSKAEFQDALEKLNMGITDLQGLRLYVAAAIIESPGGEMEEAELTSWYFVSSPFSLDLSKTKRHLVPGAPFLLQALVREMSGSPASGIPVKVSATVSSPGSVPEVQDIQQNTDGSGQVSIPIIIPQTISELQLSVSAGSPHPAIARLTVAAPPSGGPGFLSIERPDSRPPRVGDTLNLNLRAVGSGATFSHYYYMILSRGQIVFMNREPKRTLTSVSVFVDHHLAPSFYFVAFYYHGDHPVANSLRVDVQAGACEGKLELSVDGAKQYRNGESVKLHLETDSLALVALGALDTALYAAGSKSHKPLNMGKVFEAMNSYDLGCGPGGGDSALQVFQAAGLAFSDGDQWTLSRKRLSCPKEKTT
T2 chain 2: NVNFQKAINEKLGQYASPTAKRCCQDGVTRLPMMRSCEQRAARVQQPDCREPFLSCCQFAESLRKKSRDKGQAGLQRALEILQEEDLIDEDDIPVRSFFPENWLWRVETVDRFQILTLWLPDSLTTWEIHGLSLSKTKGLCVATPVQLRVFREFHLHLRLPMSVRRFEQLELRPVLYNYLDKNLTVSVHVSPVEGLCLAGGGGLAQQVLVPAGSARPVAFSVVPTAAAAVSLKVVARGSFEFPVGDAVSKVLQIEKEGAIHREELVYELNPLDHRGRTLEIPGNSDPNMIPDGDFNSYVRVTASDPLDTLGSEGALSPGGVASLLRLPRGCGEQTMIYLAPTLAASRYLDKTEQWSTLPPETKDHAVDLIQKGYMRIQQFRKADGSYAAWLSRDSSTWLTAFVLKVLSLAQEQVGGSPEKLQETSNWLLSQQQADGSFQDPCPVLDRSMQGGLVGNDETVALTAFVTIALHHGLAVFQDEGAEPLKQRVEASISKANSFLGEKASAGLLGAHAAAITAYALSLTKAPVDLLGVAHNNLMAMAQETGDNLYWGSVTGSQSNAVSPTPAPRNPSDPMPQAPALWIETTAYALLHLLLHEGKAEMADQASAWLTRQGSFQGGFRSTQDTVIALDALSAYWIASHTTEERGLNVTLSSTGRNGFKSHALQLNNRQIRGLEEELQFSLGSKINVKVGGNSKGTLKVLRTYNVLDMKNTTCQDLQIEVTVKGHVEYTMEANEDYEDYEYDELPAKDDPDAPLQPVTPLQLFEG
T2 chain 3: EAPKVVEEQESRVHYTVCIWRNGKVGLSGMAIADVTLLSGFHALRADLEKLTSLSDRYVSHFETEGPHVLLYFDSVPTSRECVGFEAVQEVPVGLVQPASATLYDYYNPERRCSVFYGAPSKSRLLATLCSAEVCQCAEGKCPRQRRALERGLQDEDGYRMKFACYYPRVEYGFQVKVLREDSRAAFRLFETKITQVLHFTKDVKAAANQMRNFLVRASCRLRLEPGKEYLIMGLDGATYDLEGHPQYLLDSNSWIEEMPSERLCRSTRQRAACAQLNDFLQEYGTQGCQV

Protein | C2 Western blot of plasma from monkeys dosed IV with 1 or 3 mg/kg protease [1] | C2 Western blot of plasma from monkeys dosed with 1 mg/kg CB252 IV [1] | average extent of degradation of C2 (densitometry of C2 Western blots), 5 minutes after 3 mg/kg CB252 IV [1] [% degraded at 5 minutes] | average extent of degradation of C2 (densitometry of C2 Western blots), 30 minutes after 3 mg/kg CB252 IV [1] [% degraded at 30 minutes] | average extent of degradation of C2 (densitometry of C2 Western blots), 60 minutes after 3 mg/kg CB252 IV [1] [% degraded at 60 minutes] | percent C2 cleavage (Western blot densitometry), plasma of animal 2, 5 minutes after 3 mg/kg CB252 IV [1] [%] | percent C2 cleavage (Western blot densitometry), plasma of animal 2, 30 minutes after 3 mg/kg CB252 IV [1] [%] | percent C2 cleavage (Western blot densitometry), plasma of animal 2, 60 minutes after 3 mg/kg CB252 IV [1] [%] | percent C2 cleavage (Western blot densitometry), plasma of animal 4, 5 minutes after 3 mg/kg CB252 IV [1] [%] | percent C2 cleavage (Western blot densitometry), plasma of animal 4, 30 minutes after 3 mg/kg CB252 IV [1] [%] | percent C2 cleavage (Western blot densitometry), plasma of animal 4, 60 minutes after 3 mg/kg CB252 IV [1] [%] | percent C2 cleavage (Western blot densitometry), plasma of animal 5, 5 minutes after 3 mg/kg CB252 IV [1] [%] | percent C2 cleavage (Western blot densitometry), plasma of animal 5, 30 minutes after 3 mg/kg CB252 IV [1] [%] | percent C2 cleavage (Western blot densitometry), plasma of animal 5, 60 minutes after 3 mg/kg CB252 IV [1] [%] | cleavage in 90% human plasma by Western blot (Complement C3 (human)) | hemolysis (OD415) by protease-preincubated purified complement protein added back to the corresponding depleted sera (Complement C3 (human)) | hemolysis (OD415) by protease-preincubated purified complement protein added back to the corresponding depleted sera (Complement C4 (human)) | hemolysis (OD415) by protease-preincubated purified complement protein added back to the corresponding depleted sera (Complement C1q (human))
B1 | increased cleavage of C2 in plasma from CB252 and CB377 treated monkeys after treatment with 3 mg/kg protease but not after treatment with 1 mg/kg protease ... a greater cleavage of C2 occurred in plasma collected form CB252 treated monkeys as compared to CB377 treated monkeys at all time points tes | Plasma from monkeys treated with 1 mg/kg CB252 had no discernable C2 cleavage | 60 | 50 | 40 | 62 | 55 | 50 | 55 | 45 | 37 | 65 | 50 | 38 | none of the tested proteases cleaved C3 in human plasma as compared to the no protease control even at the highest concentration of protease (2000 nM) | showed no decreased hemolysis as compared to normal sera or the no protease control | showed no decreased hemolysis as compared to normal sera or the no protease control | showed no decreased hemolysis as compared to normal sera or the no protease control
B2 | increased cleavage of C2 in plasma from CB252 and CB377 treated monkeys after treatment with 3 mg/kg protease but not after treatment with 1 mg/kg protease |  |  |  |  |  |  |  |  |  |  |  |  |  | none of the tested proteases cleaved C3 in human plasma as compared to the no protease control even at the highest concentration of protease (2000 nM) | showed no decreased hemolysis as compared to normal sera or the no protease control | showed no decreased hemolysis as compared to normal sera or the no protease control | showed no decreased hemolysis as compared to normal sera or the no protease control
